The text below walks through data of patent US20250019435A1 (ALBERT EINSTEIN COLLEGE OF MEDICINE, published 2025).

Test [1] has as its target T1, D0-deleted KIR2DL5 expressed on 3T3 cells (human, UniProt Q8N109 119-375).
T1 construct: the signal peptide 1-21 is left out; also called KIR2DL5 dD0; DO-deleted KIR2DL5
In words: flow cytometry, transduced 3T3 cells. The procedure: FIG. 8A-8D: Generation and characterization of anti-KIR2DL5-specific mAbs. (A) The specificity of anti-KIR2DL5 mAb clone F8B30. 3T3 cells transduced with indicated KIR family members were stained with 5 μg/mL of F8B30 (open) or mIgG1 (shaded). (B) 3T3 cells transduced with DO-deleted (KIR2DL5 dD0) or D2-deleted KIR2DL5 (KIR2DL5 dD2) were stained with 5 μg/mL of clone F8B30 or commercial clone UP-R1. (C) Anti-KIR2DL5 mAb clone F8B30 recognized different KIR2DL5A and 5B alleles. 3T3 cells transduced with indicated alleles were stained with 5 μg/mL of F8B30 or UP-R1 (open) or mIgG1 (shaded). (D) Anti-KIR2DL5 mAb clone F8B30 recognized different KIR2DL5 DO domain variants. 3T3 cells transduced with indicated DO variants were stained with 0.025 μg/mL of F8B30 or UP-R1 (open) or mIgG1 (shaded). In A-D, data are representative of 2 independent experiments.
(Flow cytometry measures light scatter and fluorescence of single cells or particles in a stream.)

The target of test [2] is KIR2DL5 D0 variant G97S expressed on 3T3 cells (human, UniProt Q8N109 22-375). In words: flow cytometry on 3T3 cells expressing the KIR2DL5 D0 variant.
Test [3] addresses KIR2DL5 D0 variant R52H expressed on 3T3 cells (human, UniProt Q8N109 22-375). Described as above.
The target in test [4] is KIR2DL5 D0 variant P112S expressed on 3T3 cells (human, UniProt Q8N109 22-375). Described as above.
The target in test [5] is KIR2DL5 D0 variant T46S expressed on 3T3 cells (human, UniProt Q8N109 22-375). Described as above.
Test [6] has as its target T2, KIR2DL5-Ig fusion protein (KIR2DL5 extracellular domain fused to human IgG1 Fc) (human, UniProt Q8N109 22-240).
T2 construct: A D0-only fusion (H22-A128) also exists; also called KIR2DL5-human Ig fusion protein; KIR2DL5 DO-D2-Ig; not shown: human IgG1 Fc tag
In words: BLI, Octet RED96; KIR2DL5-Ig captured on anti-human Fc biosensors, mAb in solution; global 1:1 fit. The procedure:
Biolayer interferometry. The affinities of anti-KIR2DL5 mAbs were analyzed by biolayer interferometry using an Octet RED96 system (ForteBio, Pall LLC). Briefly, anti-human Fc capture biosensors (ForteBio, Pall LLC) were preloaded with KIR2DL5-Ig and then dipped into a solution containing mAb at 2-fold serial dilutions (from 200 to 1.5 μg/mL). Data were analyzed using Forte Pall (Port Washington, New York, USA) software 9.0. The global data fitting to a 1:1 binding model was used to estimate values for the Kₒₙ (association rate constant), Koff (dissociation rate constant), and KD (equilibrium dissociation constant).

By EC50 is commonly meant the concentration that produces a half-maximal response. Low readings indicate an effect from little substance, high ones a need for much substance. The Kd is the equilibrium constant for the complex coming apart. High values mean a looser complex, low ones a tighter complex. In general, koff refers to the first-order rate constant of dissociation. Read a high koff as a short-lived complex. For orientation: kon means the rate constant with which the complex forms. Low readings indicate slower complex formation, high ones faster complex formation.

T2 sequence (Q8N109 22-240): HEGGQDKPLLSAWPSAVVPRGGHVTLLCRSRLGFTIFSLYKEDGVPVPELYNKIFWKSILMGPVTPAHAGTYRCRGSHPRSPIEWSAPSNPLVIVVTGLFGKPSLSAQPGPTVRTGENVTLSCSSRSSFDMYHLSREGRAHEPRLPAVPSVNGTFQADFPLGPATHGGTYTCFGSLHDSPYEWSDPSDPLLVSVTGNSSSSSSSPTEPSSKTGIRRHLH
Chain of KIR2DL5 D0 variant P112S expressed on 3T3 cells (Q8N109 22-375 P112S): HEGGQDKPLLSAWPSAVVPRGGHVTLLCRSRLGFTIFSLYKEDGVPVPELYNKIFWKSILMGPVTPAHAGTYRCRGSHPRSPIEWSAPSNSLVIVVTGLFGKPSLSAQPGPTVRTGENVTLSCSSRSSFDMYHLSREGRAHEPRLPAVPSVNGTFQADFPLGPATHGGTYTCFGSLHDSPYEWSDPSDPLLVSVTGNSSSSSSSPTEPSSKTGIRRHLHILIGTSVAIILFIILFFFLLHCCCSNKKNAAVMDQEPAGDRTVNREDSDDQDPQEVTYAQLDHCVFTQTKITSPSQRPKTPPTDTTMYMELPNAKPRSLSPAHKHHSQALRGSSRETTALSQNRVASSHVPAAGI
Chain of KIR2DL5 D0 variant T46S expressed on 3T3 cells (Q8N109 22-375 T46S): as the sequence (Q8N109 22-375 P112S) above, with T25S, S91P counted along it
T1 sequence (Q8N109 119-375, stated change not applied): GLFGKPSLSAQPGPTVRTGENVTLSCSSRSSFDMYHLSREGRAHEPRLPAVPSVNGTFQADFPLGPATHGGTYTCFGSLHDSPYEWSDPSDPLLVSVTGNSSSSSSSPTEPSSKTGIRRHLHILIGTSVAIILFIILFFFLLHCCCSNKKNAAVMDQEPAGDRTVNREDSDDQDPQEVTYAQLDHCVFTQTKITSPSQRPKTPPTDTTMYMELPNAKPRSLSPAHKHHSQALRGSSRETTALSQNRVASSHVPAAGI
Chain of KIR2DL5 D0 variant G97S expressed on 3T3 cells (Q8N109 22-375 G97S): as the sequence (Q8N109 22-375 P112S) above, with G76S, S91P counted along it
Chain of KIR2DL5 D0 variant R52H expressed on 3T3 cells (Q8N109 22-375 R52H): as the sequence (Q8N109 22-375 P112S) above, with R31H, S91P counted along it

B1: anti-KIR2DL5 mAb clone F8B30 (antibody, V domains shown)
VH: QIQLVQSGPELKKPGETVKISCKASGYTFTDYSMHWVKQAPGKGLKWMGWINTETGGPTYADDFKGRFAFSLETSATTAYLQINNLKNEDTATYFCSRDVDLYFDYWGQGTTLTVS
VL: DIQMTQSPASLSASVGETVTITCRTSENIYSYLAWYQQKQGKSPQLLVYNAKTLVEGVPSRFSGSGSGTQFSVKINSLQPEDFGNYYCQHHYGIPFTFGGGTKLEIK
notes: also called F8B30 (IgG1, κ)
Consider B1, for which, in test [1], the binding result is reported as “no binding (tested: 5 µg/mL)”. In addition, the EC50 in test [2] came out at 43.6 nM; in test [3] it was 9.2 nM; in test [4], 9.4 nM; in test [5], 8.6 nM. In test [6], binding was characterised by a dissociation constant (Kd) of 0.723 nM. This molecule yielded a koff in test [6] of 0.000444 s⁻¹. This molecule also gave a kon in test [6] of 615000 M⁻¹ s⁻¹.
